In patent US20260034194A1, “PHARMACEUTICAL COMPOSITIONS AND METHODS OF TREATING PSP” (priority 2022, published 2026):
Where a chain is given by its changes, count along the chain named. Names and notes keep the numbering of the source.

B1: D785N: RcSxph STX binding pocket mutant D785N (protein)
chain: MAPTFQTALFFTIISLSFAAPNAKQVRWCAISDLEQKKCNDLVGSCNVPDITLVCVLRSSTEDCMTAIKDGQADAMFLDSGEVYEASKDPYNLKPIIAEPYSSNRDLQKCLKERQQALAKKMIGHYIPQCDEKGNYQPQQCHGSTGHCWCVNAMGEKISGTNTPPGQTRATCERHELPKCLKERQVALGGDEKVLGRFVPQCDEKGNYEPQQFHGSTGYSWCVNAIGEEIAGTKTPPGKIPATCQKHDLVTTCHYAVAMVKKSSAFQFNQLKGKRSCHSGVSKTDGWKALVTVLVEKKLLSWDGPAKESIQRAMSKFFSVSCIPGATQTNLCKQCKGEEGKNCKNSHDEPYYGNYGAFRCLKEDMGDVAFLRSTALSDEHSEVYELLCPDNTRKPLNKYKECNLGTVPAGTVVTRKISDKTEDINNFLMEAQKRQCKLFSSAHGKDLMFDDSTLQLALLSSEVDAFLYLGVKLFHAMKALTGDAHLPSKNKVRWCTINKLEKMKCDDWSAVSGGAIACTEASCPKGCVKQILKGEADAVKLEVQYMYEALMCGLLPAVEEYHNKDDFGPCKTPGSPYTDFGTLRAVALVKKSNKDINWNNIKGKKSCHTGVGDIAGWVIPVSLIRRQNDNSDIDSFFGESCAPGSDTKSNLCKLCIGDPKNSAANTKCSLSDKEAYYGNQGAFRCLVEKGDVAFVPHTVVFENTDGKNPAVWAKNLKSEDFELLCLDGSRAPVSNYKSCKLSGIPPPAIVTREESISDVVRIVANQQSLYGRKGFEKDMFQLFSSNKGNNLLFNDNTQCLITFNRQPKDIMEDYFGKPYYTTVYGASRSAMSSELISACTIKHC
B2: D794A: RcSxph STX binding pocket mutant D794A (protein)
chain: B1 chain with N804D, D813A
B3: NpSxph: Nanorana parkeri (High Himalaya frog) saxiphilin, SEQ ID NO: 2 (protein, listed as Nanorana parkeri)
chain: MALTFHTALYFTIVGLSFAASDARHVQWCTISHLEQKKCNDLVGSCNVPDITLACVYRSSTENCMAAIKDGQADAMFLDSGDVYKASLDHYNLKPIIAEPYSLHRELTKCLKHRQESLGGDKMVKGRYIPQCDEKGNYHPVQCHASTGYCWCVNANGEKIEGTNTTPVQTPPTCPSQVLTKCLKERQEALGGKRIAIGRYIPQCDEQGNYRPMQCHGSTGYCWCVNAIGEKIEGTNTPPGNTQPTCQSHDWDTCHYAVAVVKNSSTFQFGQLKGKRSCHSGLSKTDGWNAPVNVFVEKKLLPWDGLAKGSIERAVSKFFSASCIPGATETNLCKQCIGEEEKKCKSSHDEPYYGDHGAFRCLQEDKGDVAFLKNTALPDEHSGVYELLCPDNTRKPLNKYKECNLGKVPADAVVTRKAGDKTKDINDFLLEAQKKKCKLFGSPHGKDLMFDDSTTHLAPLPSEIDAFFFLGVKWYNAMKALTEDVKLPSKNKVRWCTINKPEMMKCKDWAAVSGGAIACTEASCPEHCVKQILKGEADAVTLDVQYMYMALMCGLLPAVEEYPNKDDFHPCQIPGSTIKDFGTKRAVALVKKSNKDIKWNNLKGKKSCHTHVGDIPGWVIPAGLISNQNDNIDIESFFGESCAPGSDTNSKLCKLCIGDPENPKASTRCSLSDKEAYYGNEGAFRCLVEKGDVAFVPHTVVFANTDGKNPAEWAKDLKSEDFEILCLDGSRAPVTNYRGCNLSGLPPRAIVTREESVSDVVRILINQQSLYGRNGFEKDMFQMFSSAKGQNLLFNDETQCLIEFDRQPKDIMEDYFGVRYYTAVYSASRSAVPSELIPACTFKHC
B4: F561A: RcSxph STX binding pocket mutant F561A (protein)
chain: B1 chain with F580A, N804D
B5: Y558A: RcSxph STX binding pocket mutant Y558A (protein)
chain: B1 chain with Y577A, N804D
B6: E540D: RcSxph STX binding pocket mutant E540D (protein)
chain: B1 chain with E559D, N804D
B7: D794E: RcSxph STX binding pocket mutant D794E (protein)
chain: B1 chain with N804D, D813E
B8: OsSxph: Oophaga sylvatica (Little devil poison frog) saxiphilin, SEQ ID NO: 5 (protein, listed as Oophaga sylvatica)
chain: MRMTLQVLLCLCLLVLSSAAPNSRNVRWCVTSDTEEQKCNDLVTSCHVDEILLICVKKSSKEDCVRAISNGEADAISLDSKDVYKASLDPFNLKPIMTEAYSESEQTPCMRHRQSVLGGKKMIIGAFVPKCDEKGNYVPKQCHDSTGFCWCLNENGEEIEGTRTPPGNSGLTCENKANKPPCLKERQKLLSAKPSPAVFVPECDEKGNYRPEQSHVYSWCVDEYGEEVLGSRTFPGKPPKPCEASGETPCIKERNKVLSAAEPLPGAFVPDCDEKGYFSPLQFHGSTGHSWCVTKNGEEIKGTRTRPGQTPPTCDVPAPATLHYAVAVVKKSSSFQLDQLKGKRSCHSAVGEAAGWVAPLNVLLKKKFLLWEEPEQKSTEKVASEIFSASCAAGAQEANLCEQCAGQEDKCTRGPGEPYYGDEGAIRCLRDDKGDVAFVEDTALTGQYSDNFELLCPDNTRRPLSQYKICNFGSVPRHAVVTRSTGDKMKEITEYLLQAQKKECKLFSSTHGKDLLFEDTTSALIALPSGMDTFLFLGPDLFNGMKTLNGAHPPRVKQKIRWCPQNKNEKKKCDDWSSVSGGSIKCTEPSSALECIKMILKDEADAVNLDAEHAYTALKCGLLPSLEEYRNKDDLIVCQIPGAEYSEFGSYRIVALVKKTDKDITWNNLQGKKSCHTHVGDMIGWNIPVYLISKKTKNCDLGSYFSQSCAPGSPIDSNLCKLCIGDPQNTEANTKCSLSDKEAYYGNEGAVRCLVETGDVAFVPHTAVFENTDGKNPALWAKDLKSTDFELLCPDGSRAPVSDYKKCKLSGIANHVTVTRPESVKDVVRITQNQESLYGRTGSQKDIFQMFSSSYGQNLLFNDRTQCLFEFDRMLDRDIMDDYLGKPFHKHLMSDNDCLPKSALATACSFHH

Assay: Thermofluor (TF) assay of STX binding
Settings: 1.1 μM Sxph, 0-20 μM STX; ΔTm at 20 μM toxin

**Q.** Which “ΔTm (STX-induced change of melting temperature)” value does the source give for B1 here?
**A.** The value was “DTm increases relative to wild-type”.

**Q.** Which “ΔTm (STX-induced change of melting temperature)” value does the source give for B2 here?
**A.** Its value is “complete loss of the thermal shift”.

**Q.** Which “ΔTm (STX-induced change of melting temperature)” value does the source give for B3 here?
**A.** The value was 3.6 °C.

Assay: not given
Type: binding
Settings: FP

**Q.** With B3 as the molecule, how does the “STX/F-STX affinity compared with RcSxph” value read?
**A.** The value was “enhanced affinity”.

Same assay, conditions: FP, 1 nM F-STX, 25° C.; errors S.D.

**Q.** Which Kd does the source give for B1 here?
**A.** Its Kd is 4.4 ± 0.6 nM.

**Q.** Which Kd does the source give for B4 here?
**A.** The Kd was 16.8 ± 6 nM.

**Q.** With B5 as the molecule, how does the Kd read?
**A.** Its Kd is 1.4 ± 0.3 nM.

**Q.** Which Kd does the source give for B6 here?
**A.** Its Kd is 99.9 ± 25.1 nM.

**Q.** With B2 as the molecule, how does the Kd read?
**A.** Its Kd is 13200 ± 6870 nM.

**Q.** Which Kd does the source give for B7 here?
**A.** Its Kd is 1070 ± 69.3 nM.

**Q.** Which Kd does the source give for B8 here?
**A.** Its Kd is 0.8 ± 0.5 nM.

**Q.** Which Kd does the source give for B3 here?
**A.** Its Kd is 0.5 ± 0.3 nM.

Same assay, conditions: ΔΔG = RT ln(Kd mutant or XSxph/Kd RcSxph); T = 298K; FP with F-STX

**Q.** Which “ΔΔG” value does the source give for B1 here?
**A.** The value was -0.30 kcal/mol.

**Q.** For B4, which “ΔΔG” value is on record?
**A.** The value was 0.48 kcal/mol.

**Q.** Which “ΔΔG” value does the source give for B5 here?
**A.** Its value is -1.00 kcal/mol.

**Q.** With B6 as the molecule, how does the “ΔΔG” value read?
**A.** The value was 1.54 kcal/mol.

**Q.** For B2, which “ΔΔG” value is on record?
**A.** Its value is 4.43 kcal/mol.

**Q.** Which “ΔΔG” value does the source give for B7 here?
**A.** The value was 2.94 kcal/mol.

**Q.** With B8 as the molecule, how does the “ΔΔG” value read?
**A.** Its value is -1.32 kcal/mol.

**Q.** For B3, which “ΔΔG” value is on record?
**A.** Its value is -1.60 kcal/mol.

Assay: not given
Type: binding
Settings: ITC, STX, 25° C.
Description: . […] In almost all mutants, binding affinity loss correlated with a reduction in enthalpy, consistent with a loss of interactions (Table S2). […]. […] Together, these three assays (FIGS. 1E and G) provide a robust and versatile suite of options for characterizing STX:Sxph interactions.
ITC measurements were performed at 25° C. using a MicroCal PEAQ-ITC calorimeter (Malvern Panalytical). […]. This STX stock was diluted with the SEC buffer to prepare 100 μM or 300 μM STX solutions having a final buffer composition of 135 mM NaCl, 9 mM HEPES, pH 7.4. […]. The calorimetric experiment settings were: reference power, 5 μcal/s; spacing between injections, 150 s; stir speed 750 rpm; and feedback mode, high. Data were analyzed using MicroCal PEAQ-ITC Analysis Software (Malvern Panalytical) using a single binding site model. The heat of dilution from titrations of 100 μM STX in 135 mM NaCl, 9 mM HEPES, pH 7.4 into 135 mM NaCl, 9 mM HEPES, pH 7.4 was subtracted from each experiment to correct the baseline.

**Q.** With B4 as the molecule, how does the Kd read?
**A.** The Kd was 13.4 ± 1.4 nM.

**Q.** And the “ΔG” value?
**A.** The value was -10.8 ± 0.1 kcal/mol.

**Q.** And the “ΔH” value?
**A.** The value was -12.7 ± 0.2 kcal/mol.

**Q.** What about the “ΔS (cal mol^−1 K^−1)” value of the same molecule?
**A.** The value was −6.6 ± 0.9 cal mol^−1 K^−1.

**Q.** Which Kd does the source give for B5 here?
**A.** Its Kd is 1.2 ± 0.4 nM.

**Q.** And the “ΔG” value?
**A.** The value was -12.2 ± 0.2 kcal/mol.

**Q.** What about the “ΔH” value of the same molecule?
**A.** The value was -15.3 ± 0.0 kcal/mol.

**Q.** And the “ΔS (cal mol^−1 K^−1)” value?
**A.** The value was −11.1 ± 1.1 cal mol^−1 K^−1.

**Q.** Which results are given for B6?
**A.** Kd: 68.9 ± 10.7 nM; ΔG: -9.8 ± 0.1 kcal/mol; ΔH: -16.3 ± 1.7 kcal/mol; ΔS (cal mol^−1 K^−1): −21.9 ± 5.7 cal mol^−1 K^−1

**Q.** What does the source list for B7?
**A.** Kd: 312.5 ± 2.9 nM; ΔG: -8.9 ± 0.1 kcal/mol; ΔH: -11.8 ± 0.0 kcal/mol; ΔS (cal mol^−1 K^−1): −8.9 ± 0.1 cal mol^−1 K^−1

**Q.** Which Kd does the source give for B3 here?
**A.** Its Kd is 2.5 ± 0.1 nM.

**Q.** And the “ΔG” value?
**A.** Its value is -11.8 ± 0.1 kcal/mol.

**Q.** And the “ΔH” value?
**A.** Its value is -18.7 ± 0.2 kcal/mol.

**Q.** And the “ΔS (cal mol^−1 K^−1)” value?
**A.** Its value is −23.2 ± 0.8 cal mol^−1 K^−1.

Same assay, conditions: ITC, STX, 25° C.; listed as NpSxph WT

**Q.** For B3, which “ΔH” value is on record?
**A.** The value was -18.7 ± 0.2 kcal/mol.
